Measurements from PMC9597352.

Molecular target: T1, GST-Arl8b, Q9NVJ2
T1 chain: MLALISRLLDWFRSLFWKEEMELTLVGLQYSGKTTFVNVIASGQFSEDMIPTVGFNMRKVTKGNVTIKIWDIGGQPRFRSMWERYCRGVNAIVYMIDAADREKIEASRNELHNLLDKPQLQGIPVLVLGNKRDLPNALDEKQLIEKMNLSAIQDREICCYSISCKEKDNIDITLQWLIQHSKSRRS
Test: pull-down; GST-Arl8b on glutathione-agarose beads loaded with 20 mM GTP (TAP lysis buffer, 10 mM MgCl2, 30 min, 4°C), then HEK293T lysates of transfected cells, 2 h, 4°C; anti-FLAG blot
Conditions: remark: other sources report otherwise

B1: RUFY3-FLAG, Q7L099 1-469 (natural protein)
chain: MSALTPPTDMPTPTTDKITQAAMETIYLCKFRVSMDGEWLCLRELDDISLTPDPEPTHEDPNYLMANERMNLMNMAKLSIKGLIESALNLGRTLDSDYAPLQQFFVVMEHCLKHGLKAKKTFLGQNKSFWGPLELVEKLVPEAAEITASVKDLPGLKTPVGRGRAWLRLALMQKKLSEYMKALINKKELLSEFYEPNALMMEEEGAIIAGLLVGLNVIDANFCMKGEDLDSQVGVIDFSMYLKDGNSSKGTEGDGQITAILDQKNYVEELNRHLNATVNNLQAKVDALEKSNTKLTEELAVANNRIITLQEEMERVKEESSYILESNRKGPKQDRTAEGQALSEARKHLKEETQLRLDVEKELEMQISMRQEMELAMKMLEKDVCEKQDALVSLRQQLDDLRALKHELAFKLQSSDLGVKQKSELNSRLEEKTNQMAATIKQLEQSEKDLVKQAKTLNSAANKLIPKHH
B1 gave a pulldown relative to RUFY1 (densitometry, normalized to input) of 2 fold.
